Test results: the supplement of paper PMC10266784

B1: library; numbered along this chain (parent)
chain: MAAAAAAAAEQQSSNGPVKKSMREKAVERRSVNKEHNSNFKAGYIPIDEDRLHKTGLRGRKGNLAICVIILLFILAVINLIITLVIWAVIRIGPNGCDSMEFHESGLLRFKQVSDMGVIHPLYKSTVGGRRNENLVITGNNQPIVFQQGTTKLSVENNKTSITSDIGMQFFDPRTQNILFSTDYETHEFHLPSGVKSLNVQKASTERITSNATSDLNIKVDGRAIVRGNEGVFIMGKTIEFHMGGNMELKAENSIILNGSVMVSTTRLPSSSSGDQLGSGDWVRYKLCMCADGTLFKVQVTSQNMGCQISDNPCGNTH

Variants of: B1
Experiment: SGCB cell-surface expression functional score (HA stain, bin4 vs bin1, normalised to synonymous) (log10 ratio); higher = more cell-surface SGCB (functional)
Protocol: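 Deep mutational scan of full-length human SGCB (YFP-SGCB-HA, NNN codon sublibraries A-F) delivered by lentivirus at low MOI into ADG-HEK293 cells stably expressing SGCA, SGCD and SGCG. YFP-positive cells were stained for surface HA on unpermeabilized cells and FACS-sorted into bins. The functional score is log10(frequency in high bin 4 / frequency in low bin 1), normalised per chunk so that synonymous variants have mean 0 and SD 0.5. Scores are the median over codons and over duplicate biological replicates; scores below -0.5 are called non-functional. Scale: negative means deleterious.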

Variant | SGCB cell-surface expression functional score (log10)
N246S | -0.19
G280E | 0.02
P46I | 0.27
K286W | -0.09
L295I | 0.11
R227K | 1.05
V68D | -0.25
G16H | 0.08
G56C | -0.17
R60P | -0.19
T265D | 0
A251F | -0.98
E185W | -0.87
K54V | 0.08
E133H | 0.17
G93M | -1.49
G222K | 0.81
N316M | 0.48
I166A | -0.49
N39P | -0.17
A42H | -0.08
F241C | 0.62
I90T | 0.06
E206V | 0.45

Variant | SGCB cell-surface expression functional score (log10)
I234F | 1.03
I119K | -1.36
N246C | -0.02
K237D | 0.73
T266Y | 0.19
H36F | -0.16
K286C | -1.06
S310M | -0.01
F146W | -1.15
I178E | -2.31
R60A | -0.28
E240R | 0.44
I225Y | 1.24
D115R | -1.16
Q11S | 0.39
K20E | 0.06
R51M | -0.39
V155N | -1.38
E206R | -0.66
K159T | -0.28
Y123N | 0.64
T83S | -0.2
L153Q | -1.65
P192G | -0.57

Variant | SGCB cell-surface expression functional score (log10)
H190K | 0.07
D50P | -0.16
D50V | -0.03
L287Q | -1.3
M305W | -0.29
S270M | 0.77
G293A | -0.12
K286A | -0.54
R267T | -0.49
E206K | -0.41
F73M | -0.01
P192L | -1.17
G259H | 0.33
D115C | -1.36
K124I | 0.1
A26E | 0.27
A8H | 0.25
M235P | -0.94
K202Q | 0.17
L57N | 0.02
S154T | -0.08
N246T | 0.94
V298M | 0.21
Y123R | -0.37

Variant | SGCB cell-surface expression functional score (log10)
G117I | -1.22
S310Y | 0.49
S193H | 1.59
R131E | 0.66
W282I | 0.19
K61F | 0.7
I66N | 0.47
S125T | -0.3
D172A | 0.03
S260D | -0.04
E133W | 0.5
T160F | -0.15
I69Y | 0.41
T265L | 0.73
N39D | 0.41
T150L | -0.19
N158K | -0.26
V232W | -1.85
Y44D | 0.53
V77C | -0.11
Q308C | -0.4
S13V | 0.2
L191M | 0.28
G280N | 0.37

Variant | SGCB cell-surface expression functional score (log10)
L191I | -0.16
A9Q | 0.46
R29Y | 0.23
T138H | 0.22
N95L | -0.06
C67F | -0.08
T301G | 0.13
A6Y | 0.61
R23T | 0.24
D98M | 0.01
R267Y | 0.2
C288L | -0.83
Q176C | 1.06
P313T | 0.06
D98V | -0.14
F241Y | -0.82
P121E | -1.17
K61G | 0.03
V127I | -0.32
P143C | 0.07
G43V | 0.07
I137M | 0.54
T175Y | 0.07
A2L | 0.2

Variant | SGCB cell-surface expression functional score (log10)
E252N | 1.08
T150M | -0.99
A203R | -1.46
I234A | -0.02
I137R | -1.41
L80E | -0.1
Q142D | -0.54
I256Y | 0.42
G245L | 0.83
E10P | 0.05
T150A | -0.2
K152H | -0.48
I208C | -1.23
K159M | -0.28
A2R | 0.03
N258D | 0.39
L108Q | -1.27
T163K | -0.3
A88E | -0.1
K25H | -0.78
Q12H | 0.03
H36Y | 0.15
L287S | -1.02
G293M | -0.11

Variant | SGCB cell-surface expression functional score (log10)
S99V | 0.15
E188W | -0.68
N199P | -1.11
V195S | -0.44
T175G | 0.14
G93S | -0.25
L57P | -0.03
E101P | -1.78
G106N | -0.38
S302K | 0.45
C67N | 0.19
T213Y | -0.24
A291W | -1.18
G236T | -0.62
G315Q | 0.1
N229G | 0.8
K237V | 0.29
S197K | -0.3
H242N | 0.39
Q299W | 0.13
T160G | -1.29
S38C | -0.16
S125E | -0.08
